Laboratory results: CN116041515A (NANJING IASO BIOTHERAPEUTICS TECH CO LTD, dated 2023)

T1: Recombinant biotinylated Human BAFF-R Protein, Kactus BAF-HM40RB (human, UniProt Q96RJ3 1-78, biotinylated)
T1 construct: Bought; also called Kactus BAFF-R-his-Bio; Kactus BAFFR-his bio; not shown: his tag and biotin label
T1 sequence (looked up): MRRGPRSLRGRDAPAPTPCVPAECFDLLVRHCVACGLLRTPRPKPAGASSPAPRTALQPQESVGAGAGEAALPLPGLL

T2: Biotinylated Human CD27 Ligand, HIS, Avitag, ACRObiosystem CDL-H82Q9 (human, UniProt P32970 39-193, limits assumed, biotinylated)
T2 construct: Unrelated control antigen; also called ACRO-CD70-his; Acro-CD70-his; not shown: HIS tag and Avitag
T2 sequence (looked up): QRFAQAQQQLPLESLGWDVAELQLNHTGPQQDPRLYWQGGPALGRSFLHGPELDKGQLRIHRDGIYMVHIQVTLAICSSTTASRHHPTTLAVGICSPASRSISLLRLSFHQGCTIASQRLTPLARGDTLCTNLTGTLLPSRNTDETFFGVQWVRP

T3: Recombinant biotinylated Human CD19 Protein, Kactus CD2-HE121 (human, UniProt P15391 20-291, biotinylated)
T3 construct: Unrelated control antigen; also called Kactus-CD19-Fc; not shown: Fc by the short name
T3 sequence (looked up): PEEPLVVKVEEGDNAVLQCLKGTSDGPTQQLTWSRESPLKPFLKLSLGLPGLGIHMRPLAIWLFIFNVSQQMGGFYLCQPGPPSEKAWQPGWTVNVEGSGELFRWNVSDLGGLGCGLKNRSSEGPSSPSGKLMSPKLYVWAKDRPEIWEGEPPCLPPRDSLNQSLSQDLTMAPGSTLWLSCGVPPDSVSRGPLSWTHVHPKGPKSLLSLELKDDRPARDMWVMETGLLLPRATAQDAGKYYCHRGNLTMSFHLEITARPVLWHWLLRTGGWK


How the values were obtained:
[1] = biological target: T4, Streptavidin, Pierce 21125 (UniProt P22629 37-163, limits assumed); assay: ELISA with purified IgG-form antibody
T4 construct: Control protein coated on the plate; also called SA; Strepavidin
T4 sequence (P22629 37-163 limits assumed): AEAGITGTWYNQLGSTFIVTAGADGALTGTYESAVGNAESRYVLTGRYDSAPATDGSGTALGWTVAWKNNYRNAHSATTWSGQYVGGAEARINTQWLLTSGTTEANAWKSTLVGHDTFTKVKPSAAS

[2] = biological target: T5, human-IL10-his-Bio, Kactus IL1-HM410B (human, UniProt P22301 19-178, biotinylated); assay: ELISA with purified IgG-form antibody
T5 construct: Unrelated control antigen; also called Kactus-IL10-Bio-his; not shown: his tag and biotin label
T5 sequence (P22301 19-178): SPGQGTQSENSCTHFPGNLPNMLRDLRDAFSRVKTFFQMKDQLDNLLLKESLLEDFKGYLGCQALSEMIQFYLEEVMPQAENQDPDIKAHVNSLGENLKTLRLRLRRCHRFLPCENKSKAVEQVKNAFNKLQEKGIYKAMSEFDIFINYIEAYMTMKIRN

[3] = biological target: T1, Recombinant biotinylated Human BAFF-R …; assay: BLI, IgG on the sensor, antigen 100 to 6.25 nM, 1:1 model
[4] = biological target: T4, Streptavidin, Pierce 21125; assay: phage ELISA
[5] = biological target: T2, Biotinylated Human CD27 Ligand, HIS, …; assay: phage ELISA
[6] = biological target: T3, Recombinant biotinylated Human CD19 …; assay: phage ELISA

Binder | binding result [1] | binding result [2] | Kd [3] [nM] | koff [3] [s⁻¹] | kon [3] [M⁻¹ s⁻¹] | binding result [4] | binding result [5] | binding result [6]
Clone 10 IgG (Fc fusion, also called anti-BAFF-R IgG; not shown: human IgG4 Fc) QSALTQPASVSGSPGQSITISCTGTSSDVGGYNYVSWYQQHPGKAPKLMIYEVSNRPSGVSNRFSGSKSGNTASLTISGLQAEDEADYYCSSYTSSSTYVFGTGTKVTVLGSRGGGGSGGGGSGGGGSLEQITLKESGPTLVKPTQTLTLTCTFSGFSLSTSGVGVGWIRQPPGKALEWLALIYWDDDKRYSPSLKSRLTITKDTSKNQVVLTMTNMDPVDTATYYCARYAGQYSGMWPWDYWGQGTLVTVSS | no binding | no binding | 0.762 | 8.72e-05 | 114000 |  |  | 
Clone 10 (phage-displayed scFv monoclonal) (scFv, the phage coat protein fusion is not described; also called #10号克隆) scFv: QSALTQPASVSGSPGQSITISCTGTSSDVGGYNYVSWYQQHPGKAPKLMIYEVSNRPSGVSNRFSGSKSGNTASLTISGLQAEDEADYYCSSYTSSSTYVFGTGTKVTVLGSRGGGGSGGGGSGGGGSLEQITLKESGPTLVKPTQTLTLTCTFSGFSLSTSGVGVGWIRQPPGKALEWLALIYWDDDKRYSPSLKSRLTITKDTSKNQVVLTMTNMDPVDTATYYCARYAGQYSGMWPWDYWGQGTLVTVSS |  |  |  |  |  | no binding | no binding | no binding
